Legend:
[1] = biological target: HGFR protein extracellular domain with the His tag (human) (UniProt P08581); assay: competition ELISA, blocks bio-HGF-His on coated HGFR-His
[2] = biological target: HGFR protein extracellular domain with the His tag (human) (UniProt P08581); assay: SPR Biacore T200, antibody captured on Protein A, antigen in flow, 1:1 fit
[3] = biological target: human EGFR protein extracellular domain with the His tag (human) (UniProt P00533); assay: as above

- IC50 [1]: 1.36 µg/mL
- Max (%) [1]: 94.1%
- Kd [2]: 10.3 nM
- koff [2]: 0.000303 s⁻¹
- kon [2]: 29500 M⁻¹ s⁻¹
- Kd [3]: 69.1 nM
- koff [3]: 0.00473 s⁻¹
- kon [3]: 68500 M⁻¹ s⁻¹
Substance: MCLA (bispecific antibody)

Source: patent US20240352132A1
